Measurements from article PMC4975591.

Target: T1, Full-length cysteine string protein CSP(1-198), Q9H3Z4
T1 chain: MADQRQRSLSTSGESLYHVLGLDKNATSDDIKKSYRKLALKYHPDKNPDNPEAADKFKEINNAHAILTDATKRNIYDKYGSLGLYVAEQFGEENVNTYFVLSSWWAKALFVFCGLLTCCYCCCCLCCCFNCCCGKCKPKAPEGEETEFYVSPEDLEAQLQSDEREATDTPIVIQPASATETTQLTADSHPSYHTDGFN
Test: AUC; sedimentation velocity, 50,000 rpm, 20.1°C, 9 hr, absorbance at 279 nm; self-association of purified recombinant protein
Details: remark: other sources report otherwise

stoichiometry N: > 10 subunits
B1: Full-length cysteine string protein CSP(1-198), Q9H3Z4 1-198 (natural protein)
chain: T1 chain
